# Results: patent publication US20210284709A1 (JUNO THERAPEUTICS, published 2021)
# Changes are numbered by the printed parent chain.
# B1: TCR 43 (codon-optimized, cysteine-modified) (TCR, V domains shown)
# V domain 1: QKEVEQNSGPLSVPEGAIASLNCTYSDRGSQSFFWYRQYSGKSPELIMFIYSNGDKEDGRFTAQLNKASQYVSLLIRDSQPSDSATYLCAVNVPTSGTYKYIFGTGTRLKVLA
# V domain 2: EPEVTQTPSHQVTQMGQEVILRCVPISNHLYFYWYRQILGQKVEFLVSFYNNEISEKSEIFDDQFSVERPDGSNFTLKIRSTKLEDSAMYFCASTPRDSYEQYFGPGTRLTVTE
# B2: TCR 33 (codon-optimized, cysteine-modified) (TCR, V domains shown)
# V domain 1: B1 V domain 1 with V93A, P94H, T95H, S96T, T98G, Y99F, Y101T, T105A, K110F, L112K
# V domain 2: B1 V domain 2 with S99T
# B3: TCR 49 (codon-optimized, cysteine-modified) (TCR, V domains shown)
# V domain 1: B1 V domain 1 with V93I, P94G
# V domain 2: B1 V domain 2 with D98Y
# B4: TCR 34 (codon-optimized, cysteine-modified) (TCR, V domains shown)
# V domain 1: ELKVEQNPLFLSMQEGKNYTIYCNYSTTSDRLYWYRQDPGKSLESLFVLLSNGAVKQEGRLMASLDTKARLSTLHITAAVHDLSATYFCAVSGTYKYIFGTGTRLKVLA
# V domain 2: ETGVTQSPTHLIKTRGQQVTLRCSSQSGHNTVSWYQQALGQGPQFIFQYYREEENGRGNFPPRFSGLQFPNYSSELNVNALELDDSALYLCASSSYAGSYEQYFGPGTRLTVTE
# B5: TCR 35 (codon-optimized, cysteine-modified) (TCR, V domains shown)
# V domain 1: KDQVFQPSTVASSEGAVVEIFCNHSVSNAYNFFWYLHFPGCAPRLLVKGSKPSQQGRYNMTYERFSSSLLILQVREADAAVYYCAVAGDYKLSFGAGTTVTVRA
# V domain 2: DSGVTQTPKHLITATGQRVTLRCSPRSGDLSVYWYQQSLDQGLQFLIQYYNGEERAKGNILERFSAQQFPDLHSELNLSSLELGDSALYFCASTTSGDSSYNEQFFGPGTRLTVLE
# B6: TCR 36 (codon-optimized, cysteine-modified) (TCR, V domains shown)
# V domain 1: RKEVEQDPGPFNVPEGATVAFNCTYSNSASQSFFWYRQDCRKEPKLLMSVYSSGNEDGRFTAQLNRASQYISLLIRDSKLSDSATYLCVVNRDNYGQNFVFGPGTRLSVLP
# V domain 2: B1 V domain 2 with S94M, P96G, D98S, S99N
# B7: TCR 37 (codon-optimized, cysteine-modified) (TCR, V domains shown)
# V domain 1: ELKVEQNPLFLSMQEGKNYTIYCNYSTTSDRLYWYRQDPGKSLESLFVLLSNGAVKQEGRLMASLDTKARLSTLHITAAVHDLSATYFCAGYSGAGSYQLTFGKGTKLSVIP
# V domain 2: GAGVSQSPRYKVAKRGQDVALRCDPISGHVSLFWYQQALGQGPEFLTYFQNEAQLDKSGLPSDRFFAERPEGSVSTLKIQRTQQEDSAVYLCASSLLLGAYGYTFGSGTRLTVVE
# B8: TCR 39 (codon-optimized, cysteine-modified) (TCR, V domains shown)
# V domain 1: GQQLNQSPQSMFIQEGEDVSMNCTSSSIFNTWLWYKQEPGEGPVLLIALYKAGELTSNGRLTAQFGITRKDSFLNISASIPSDVGIYFCAGYSSSNDYKLSFGAGTTVTVRA
# V domain 2: EPEVTQTPSHQVTQMGQEVILRCVPISNHLYFYWYRQILGQKVEFLVSFYNNEISEKSEIFDDQFSVERPDGSNFTLKIRSTKLEDSAMYFCASTPRDRGKEAFFGQGTRLTVVE
# B9: TCR 40 (codon-optimized, cysteine-modified) (TCR, V domains shown)
# V domain 1: GQQVMQIPQYQHVQEGEDFTTYCNSSTTLSNIQWYKQRPGGHPVFLIQLVKSGEVKKQKRLTFQFGEAKKNSSLHITATQTTDVGTYFCAGRNNFNKFYFGSGTKLNVKP
# V domain 2: B1 V domain 2 with S94I, P96A, D98S
# B10: TCR 42 (codon-optimized, cysteine-modified) (TCR, V domains shown)
# V domain 1: B9 V domain 1 with R92P, N93D
# V domain 2: B1 V domain 2 with S94K, P96S, D98S
# B11: TCR 41 (codon-optimized, cysteine-modified) (TCR, V domains shown)
# V domain 1: RKEVEQDPGPFNVPEGATVAFNCTYSNSASQSFFWYRQDCRKEPKLLMSVYSSGNEDGRFTAQLNRASQYISLLIRDSKLSDSATYLCVVTFALTGGFKTIFGAGTRLFVKA
# V domain 2: EPEVTQTPSHQVTQMGQEVILRCVPISNHLYFYWYRQILGQKVEFLVSFYNNEISEKSEIFDDQFSVERPDGSNFTLKIRSTKLEDSAMYFCASNPRDRVSYEQYFGPGTRLTVTE
# B12: TCR 44 (codon-optimized, cysteine-modified) (TCR, V domains shown)
# V domain 1: GQNIDQPTEMTATEGAIVQINCTYQTSGFNGLFWYQQHAGEAPTFLSYNVLDGLEEKGRFSSFLSRSKGYSYLLLKELQMKDSASYLCAQYSGGYQKVTFGTGTKLQVIP
# V domain 2: DSGVTQTPKHLITATGQRVTLRCSPRSGDLSVYWYQQSLDQGLQFLIQYYNGEERAKGNILERFSAQQFPDLHSELNLSSLELGDSALYFCASSGTPDTQYFGPGTRLTVLE
# B13: TCR 45 (codon-optimized, cysteine-modified) (TCR, V domains shown)
# V domain 1: GQQVMQIPQYQHVQEGEDFTTYCNSSTTLSNIQWYKQRPGGHPVFLIQLVKSGEVKKQKRLTFQFGEAKKNSSLHITATQTTDVGTYFCAGSSGAGSYQLTFGKGTKLSVIP
# V domain 2: GAGVSQSPSNKVTEKGKDVELRCDPISGHTALYWYRQRLGQGLEFLIYFQGNSAPDKSGLPSDRFSAERTGESVSTLTIQRTQQEDSAVYLCASSLYLGTTGELFFGEGSRLTVLE
# B14: TCR 46 (codon-optimized, cysteine-modified) (TCR, V domains shown)
# V domain 1: AQSVTQLDSQVPVFEEAPVELRCNYSSSVSVYLFWYVQYPNQGLQLLLKYLSGSTLVKGINGFEAEFNKSQTSFHLRKPSVHISDTAEYFCAVSPSSGTYKYIFGTGTRLKVLA
# V domain 2: GAGVSQTPSNKVTEKGKYVELRCDPISGHTALYWYRQSLGQGPEFLIYFQGTGAADDSGLPNDRFFAVRPEGSVSTLKIQRTERGDSAVYLCASSLYLGGSETQYFGPGTRLLVLE
# B15: TCR 47 (codon-optimized, cysteine-modified) (TCR, V domains shown)
# V domain 1: QKEVEQNSGPLSVPEGAIASLNCTYSDRGSQSFFWYRQYSGKSPELIMFIYSNGDKEDGRFTAQLNKASQYVSLLIRDSQPSDSATYLCAVNLLSGSARQLTFGSGTQLTVLP
# V domain 2: B1 V domain 2 with S94M, P96G, D98T, S99T
# B16: TCR 48 (codon-optimized, cysteine-modified) (TCR, V domains shown)
# V domain 1: QKEVEQDPGPLSVPEGAIVSLNCTYSNSAFQYFMWYRQYSRKGPELLMYTYSSGNKEDGRFTAQVDKSSKYISLFIRDSQPSDSATYLCAMRIQGAQKLVFGQGTRLTINP
# V domain 2: B1 V domain 2 with P96G, D98V
# B17: TCR 50 (codon-optimized, cysteine-modified) (TCR, V domains shown)
# V domain 1: GEDVEQSLFLSVREGDSSVINCTYTDSSSTYLYWYKQEPGAGLQLLTYIFSNMDMKQDQRLTVLLNKKDKHLSLRIADTQTGDSAIYFCAESPPGTYKYIFGTGTRLKVLA
# V domain 2: DSGVTQTPKHLITATGQRVTLRCSPRSGDLSVYWYQQSLDQGLQFLIHYYNGEERAKGNILERFSAQQFPDLHSELNLSSLELGDSALYFCASSATRDAYGYTFGSGTRLTVVE
# B18: TCR 51 (codon-optimized, cysteine-modified) (TCR, V domains shown)
# V domain 1: QKEVEQNSGPLSVPEGAIASLNCTYSDRGSQSFFWYRQYSGKSPELIMSIYSNGDKEDGRFTAQLNKASQYVSLLIRDSQPSDSATYLCAVNMRGGGSNYKLTFGKGTLLTVNP
# V domain 2: B1 V domain 2 with S94I, T95A, P96S, D98V
# B19: TCR 53 (codon-optimized, cysteine-modified) (TCR, V domains shown)
# V domain 1: AQSVAQPEDQVNVAEGNPLTVKCTYSVSGNPYLFWYVQYPNRGLQFLLKYITGDNLVKGSYGFEAEFNKSQTSFHLKKPSALVSDSALYFCAVRDFGSGTYKYIFG
# V domain 2: GAGVSQSPRYKVTKRGQDVALRCDPISGHVSLYWYRQALGQGPEFLTYFNYEAQQDKSGLPNDRFSAERPEGSISTLTIQRTEQRDSAMYRCASSGSGTSGYNEQFFGPGTRLTVLE
# B20: TCR 55 (codon-optimized, cysteine-modified) (TCR)
# TCR alpha: GEDVEQSLFLSVREGDSSVINCTYTDSSSTYLYWYKQEPGAGLQLLTYIFSNMDMKQDQRLTVLLNKKDKHLSLRIADTQTGDSAIYFCAVPSGATNKLIFGTGTLLAVQPNIQNPDPAVYQLRDSKSSDKSVCLFTDFDSQTNVSQSKDSDVYITDKCVLDMRSMDFKSNSAVAWSNKSDFACANAFNNSIIPEDTFFPSPESSCDVKLVEKSFETDTNLNFQNLSVIGFRILLLKVAGFNLLMTLRLWSS
# TCR beta: EPEVTQTPSHQVTQMGQEVILRCVPISNHLYFYWYRQILGQKVEFLVSFYNNEISEKSEIFDDQFSVERPDGSNFTLKIRSTKLEDSAMYFCASTTRSSYEQYFGPGTRLTVTEDLKNVFPPEVAVFEPSEAEISHTQKATLVCLATGFYPDHVELSWWVNGKEVHSGVCTDPQPLKEQPALNDSRYCLSSRLRVSATFWQNPRNHFRCQVQFYGLSENDEWTQDRAKPVTQIVSAEAWGRADCGFTSESYQQGVLSATILYEILLGKATLYAVLVSALVLMAMVKRKDSRG
# B21: TCR 31 (codon-optimized, cysteine-modified) (TCR, V domains shown)
# V domain 1: DQQVKQNSPSLSVQEGRISILNCDYTNSMFDYFLWYKKYPAEGPTFLISISSIKDKNEDGRFTVFLNKSAKHLSLHIVPSQPGDSAVYFCAASERGTYKYIFGTGTRLKVLA
# V domain 2: GAGVSQSPSNKVTEKGKDVELRCDPISGHTALYWYRQSLGQGLEFLIYFQGNSAPDKSGLPSDRFSAERTGGSVSTLTIQRTQQEDSAVYLCASSRFLGSTDTQYFGPGTRLTVLE
# Target: T1, HLA-A2/E7(11-19) tetramer (human; HPV 16)
# T1 construct: also called E7(11-19) peptide-MHC tetramer; E7 tet
# Assay: flow cytometry, tetramer + anti-CD8; transfected mix of CD8- and CD8+ Jurkat-derived cells;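 further: cells transiently transfected with TCR-encoding plasmids, analysed 48 h afterwards by co-staining with HLA-A*02:01 peptide tetramer and anti-CD8 antibody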
# Description: For transfection, the CD4+ and CD4+/CD8+ cell mixtures were transiently transfected with TCR-encoding plasmids and 48 hours after transfection, cells were assessed by flow cytometry for (1) binding of the target peptide in the context of an MHC molecule (HLA:A02:01) by staining with an E6(29-38) peptide- or an E7(11-19) peptide-MHC tetramer reagent, and/or (2) CD8+ independent binding of the target by co-staining the tetramer-labeled cells with an anti-CD8 antibody.
Binder,% cells E7 tet+/CD8+ quadrant [%],% cells E7 tet+/CD8- quadrant [%]
B1,3.82,1.88
B2,22.6,14
B3,5.54,3.06
B4,26.3,26
B5,14.5,7.18
B6,23.4,16.7
B7,25.5,19.5
B8,12.3,2.61
B9,7.84,1.37
B10,1.21,1.65
B11,6.07,2.41
B12,2.96,1.43
B13,22.4,16.9
B14,1.27,1.21
B15,1.98,0.71
B16,5.36,1.29
B17,3.28,0.25
B18,5.7,2.06
B19,3.35,0.43
B20,1.45,0.28
B21,4.52,0.042
